Laboratory results: the Human Domainome abundance scans (Beltran et al. 2025)
± gives the uncertainty stated by the source.

B1: Protein C-ets-1, residues 55 to 135; numbered along this chain, P14921 (parent)
chain: GFTKEQQRLGIPKDPRQWTETHVRDWVMWAVNEFSLKGVDFQKFCMNGAALCALGKDCFLELAPDFVGDILWEHLEILQKE

Variants of: B1
Test: abundance fitness (aPCA) (normalised: wild type 0, dead -1); higher = more abundant; growth selection in yeast, the domain comes from the species named
Settings: Homo sapiens

Variant | abundance fitness
GFTKEQQRLGIPKDPRQWTETHVRDWVMWAVNEFSLKGVDEQKFCMNGAALCALGKDCFLELAPDFVGDILWEHLEILQKE [F41E] | -0.031 ± 0.052
GFTKEQQRLGIPKDPRQWTETHVRDWVMWAVNEFSLKGVDPQKFCMNGAALCALGKDCFLELAPDFVGDILWEHLEILQKE [F41P] | 0.059 ± 0.045
GFTKEQQRLGIPKDPRQWTETHVRDWVMWAVNEFSLKGVDLQKFCMNGAALCALGKDCFLELAPDFVGDILWEHLEILQKE [F41L] | 0.051 ± 0.028
GFTKEQQRLGIPKDPRQWTETHVRDWVMWAVNEFSLKGVDIQKFCMNGAALCALGKDCFLELAPDFVGDILWEHLEILQKE [F41I] | 0.022 ± 0.055
GFTKEQQRLGIPKDPRQWTETHVRDWVMWAVNEFSLKGVDDQKFCMNGAALCALGKDCFLELAPDFVGDILWEHLEILQKE [F41D] | -0.053 ± 0.037
GFTKEQQRLGIPKDPRQWTETHVRDWVMWAVNEFSLKGVDKQKFCMNGAALCALGKDCFLELAPDFVGDILWEHLEILQKE [F41K] | -0.072 ± 0.062
GFTKEQQRLGIPKDPRQWTETHVRDWVMWAVNEFSLKGVDYQKFCMNGAALCALGKDCFLELAPDFVGDILWEHLEILQKE [F41Y] | 0.055 ± 0.055
GFTKEQQRLGIPKDPRQWTETHVRDWVMWAVNEFSLKGVDTQKFCMNGAALCALGKDCFLELAPDFVGDILWEHLEILQKE [F41T] | 0.007 ± 0.047
GFTKEQQRLGIPKDPRQWTETHVRDWVMWAVNEFSLKGVDNQKFCMNGAALCALGKDCFLELAPDFVGDILWEHLEILQKE [F41N] | -0.039 ± 0.11
GFTKEQQRLGIPKDPRQWTETHVRDWVMWAVNEFSLKGVDRQKFCMNGAALCALGKDCFLELAPDFVGDILWEHLEILQKE [F41R] | -0.094 ± 0.03
GFTKEQQRLGIPKDPRQWTETHVRDWVMWAVNEFSLKGVDSQKFCMNGAALCALGKDCFLELAPDFVGDILWEHLEILQKE [F41S] | -0.042 ± 0.036
GFTKEQQRLGIPKDPRQWTETHVRDWVMWAVNEFSLKGVDCQKFCMNGAALCALGKDCFLELAPDFVGDILWEHLEILQKE [F41C] | -0.034 ± 0.044
GFTKEQQRLGIPKDPRQWTETHVRDWVMWAVNEFSLKGVDGQKFCMNGAALCALGKDCFLELAPDFVGDILWEHLEILQKE [F41G] | -0.128 ± 0.031
GFTKEQQRLGIPKDPRQWTETHVRDWVMWAVNEFSLKGVDMQKFCMNGAALCALGKDCFLELAPDFVGDILWEHLEILQKE [F41M] | 0.056 ± 0.067
GFTKEQQRLGIPKDPRQWTETHVRDWVMWAVNEFSLKGVDQQKFCMNGAALCALGKDCFLELAPDFVGDILWEHLEILQKE [F41Q] | -0.134 ± 0.066
GFTKEQQRLGIPKDPRQWTETHVRDWVMWAVNEFSLKGVDWQKFCMNGAALCALGKDCFLELAPDFVGDILWEHLEILQKE [F41W] | -0.1 ± 0.046
GFTKEQQRLGIPKDPRQWTETHVRDWVMWAVNEFSLKGVDHQKFCMNGAALCALGKDCFLELAPDFVGDILWEHLEILQKE [F41H] | 0.045 ± 0.069
GFTKEQQRLGIPKDPRQWTETHVRDWVMWAVNEFSLKGVDVQKFCMNGAALCALGKDCFLELAPDFVGDILWEHLEILQKE [F41V] | 0.044 ± 0.028
GFTKEQQRLGIPKDPRQWTETHVRDWVMWAVNEFSLKGVDFQKCCMNGAALCALGKDCFLELAPDFVGDILWEHLEILQKE [F44C] | -1.01 ± 0.2
GFTKEQQRLGIPKDPRQWTETHVRDWVMWAVNEFSLKGVDFQKGCMNGAALCALGKDCFLELAPDFVGDILWEHLEILQKE [F44G] | -1.02 ± 0.098
GFTKEQQRLGIPKDPRQWTETHVRDWVMWAVNEFSLKGVDFQKMCMNGAALCALGKDCFLELAPDFVGDILWEHLEILQKE [F44M] | -0.275 ± 0.074
GFTKEQQRLGIPKDPRQWTETHVRDWVMWAVNEFSLKGVDFQKKCMNGAALCALGKDCFLELAPDFVGDILWEHLEILQKE [F44K] | -1.04 ± 0.27
GFTKEQQRLGIPKDPRQWTETHVRDWVMWAVNEFSLKGVDFQKICMNGAALCALGKDCFLELAPDFVGDILWEHLEILQKE [F44I] | -0.38 ± 0.079

Variant | abundance fitness
GFTKEQQRLGIPKDPRQWTETHVRDWVMWAVNEFSLKGVDFQKDCMNGAALCALGKDCFLELAPDFVGDILWEHLEILQKE [F44D] | -0.724 ± 0.18
GFTKEQQRLGIPKDPRQWTETHVRDWVMWAVNEFSLKGVDFQKECMNGAALCALGKDCFLELAPDFVGDILWEHLEILQKE [F44E] | -0.73 ± 0.1
GFTKEQQRLGIPKDPRQWTETHVRDWVMWAVNEFSLKGVDFQKHCMNGAALCALGKDCFLELAPDFVGDILWEHLEILQKE [F44H] | -0.89 ± 0.22
GFTKEQQRLGIPKDPRQWTETHVRDWVMWAVNEFSLKGVDFQKACMNGAALCALGKDCFLELAPDFVGDILWEHLEILQKE [F44A] | -0.769 ± 0.065
GFTKEQQRLGIPKDPRQWTETHVRDWVMWAVNEFSLKGVDFQHFCMNGAALCALGKDCFLELAPDFVGDILWEHLEILQKE [K43H] | -0.187 ± 0.087
GFTKEQQRLGIPKDPRQWTETHVRDWVMWAVNEFSLKGVDFQCFCMNGAALCALGKDCFLELAPDFVGDILWEHLEILQKE [K43C] | -0.206 ± 0.039
GFTKEQQRLGIPKDPRQWTETHVRDWVMWAVNEFSLKGVDFQVFCMNGAALCALGKDCFLELAPDFVGDILWEHLEILQKE [K43V] | -0.425 ± 0.045
GFTKEQQRLGIPKDPRQWTETHVRDWVMWAVNEFSLKGVDFQNFCMNGAALCALGKDCFLELAPDFVGDILWEHLEILQKE [K43N] | -0.049 ± 0.077
GFTKEQQRLGIPKDPRQWTETHVRDWVMWAVNEFSLKGVDFQYFCMNGAALCALGKDCFLELAPDFVGDILWEHLEILQKE [K43Y] | -0.351 ± 0.078
GFTKEQQRLGIPKDPRQWTETHVRDWVMWAVNEFSLKGVDFQTFCMNGAALCALGKDCFLELAPDFVGDILWEHLEILQKE [K43T] | -0.302 ± 0.048
GFTKEQQRLGIPKDPRQWTETHVRDWVMWAVNEFSLKGVDFQGFCMNGAALCALGKDCFLELAPDFVGDILWEHLEILQKE [K43G] | -0.289 ± 0.038
GFTKEQQRLGIPKDPRQWTETHVRDWVMWAVNEFSLKGVDFQRFCMNGAALCALGKDCFLELAPDFVGDILWEHLEILQKE [K43R] | -0.007 ± 0.036
GFTKEQQRLGIPKDPRQWTETHVRDWVMWAVNEFSLKGVDFQDFCMNGAALCALGKDCFLELAPDFVGDILWEHLEILQKE [K43D] | -0.2 ± 0.068
GFTKEQQRLGIPKDPRQWTETHVRDWVMWAVNEFSLKGVDFQFFCMNGAALCALGKDCFLELAPDFVGDILWEHLEILQKE [K43F] | -0.494 ± 0.058
GFTKEQQRLGIPKDPRQWTETHVRDWVMWAVNEFSLKGVDFQEFCMNGAALCALGKDCFLELAPDFVGDILWEHLEILQKE [K43E] | -0.283 ± 0.049
GFTKEQQRLGIPKDPRQWTETHVRDWVMWAVNEFSLKGVDFQIFCMNGAALCALGKDCFLELAPDFVGDILWEHLEILQKE [K43I] | -0.424 ± 0.11
GFTKEQQRLGIPKDPRQWTETHVRDWVMWAVNEFSLKGVDFQMFCMNGAALCALGKDCFLELAPDFVGDILWEHLEILQKE [K43M] | -0.315 ± 0.083
GFTKEQQRLGIPKDPRQWTETHVRDWVMWAVNEFSLKGVDFQSFCMNGAALCALGKDCFLELAPDFVGDILWEHLEILQKE [K43S] | -0.185 ± 0.043
GFTKEQQRLGIPKDPRQWTETHVRDWVMWAVNEFSLKGVDFQQFCMNGAALCALGKDCFLELAPDFVGDILWEHLEILQKE [K43Q] | -0.086 ± 0.052
GFTKEQQRLGIPKDPRQWTETHVRDWVMWAVNEFSLKGVYFQKFCMNGAALCALGKDCFLELAPDFVGDILWEHLEILQKE [D40Y] | -0.651 ± 0.11
GFTKEQQRLGIPKDPRQWTETHVRDWVMWAVNEFSLKGVWFQKFCMNGAALCALGKDCFLELAPDFVGDILWEHLEILQKE [D40W] | -0.77 ± 0.088
GFTKEQQRLGIPKDPRQWTETHVRDWVMWAVNEFSLKGVTFQKFCMNGAALCALGKDCFLELAPDFVGDILWEHLEILQKE [D40T] | -0.363 ± 0.065
GFTKEQQRLGIPKDPRQWTETHVRDWVMWAVNEFSLKGVRFQKFCMNGAALCALGKDCFLELAPDFVGDILWEHLEILQKE [D40R] | -0.245 ± 0.038

Variant | abundance fitness
GFTKEQQRLGIPKDPRQWTETHVRDWVMWAVNEFSLKGVVFQKFCMNGAALCALGKDCFLELAPDFVGDILWEHLEILQKE [D40V] | -0.209 ± 0.047
GFTKEQQRLGIPKDPRQWTETHVRDWVMWAVNEFSLKGVQFQKFCMNGAALCALGKDCFLELAPDFVGDILWEHLEILQKE [D40Q] | -0.045 ± 0.089
GFTKEQQRLGIPKDPRQWTETHVRDWVMWAVNEFSLKGVSFQKFCMNGAALCALGKDCFLELAPDFVGDILWEHLEILQKE [D40S] | -0.164 ± 0.037
GFTKEQQRLGIPKDPRQWTETHVRDWVMWAVNEFSLKGVDFAKFCMNGAALCALGKDCFLELAPDFVGDILWEHLEILQKE [Q42A] | -0.071 ± 0.035
GFTKEQQRLGIPKDPRQWTETHVRDWVMWAVNEFSLKGVDFIKFCMNGAALCALGKDCFLELAPDFVGDILWEHLEILQKE [Q42I] | -0.619 ± 0.1
GFTKEQQRLGIPKDPRQWTETHVRDWVMWAVNEFSLKGVDFEKFCMNGAALCALGKDCFLELAPDFVGDILWEHLEILQKE [Q42E] | 0.021 ± 0.068
GFTKEQQRLGIPKDPRQWTETHVRDWVMWAVNEFSLKGVDFGKFCMNGAALCALGKDCFLELAPDFVGDILWEHLEILQKE [Q42G] | 0.007 ± 0.035
GFTKEQQRLGIPKDPRQWTETHVRDWVMWAVNEFSLKGVDFFKFCMNGAALCALGKDCFLELAPDFVGDILWEHLEILQKE [Q42F] | -0.664 ± 0.11
GFTKEQQRLGIPKDPRQWTETHVRDWVMWAVNEFSLKGVDFKKFCMNGAALCALGKDCFLELAPDFVGDILWEHLEILQKE [Q42K] | -0.075 ± 0.076
GFTKEQQRLGIPKDPRQWTETHVRDWVMWAVNEFSLKGVDFMKFCMNGAALCALGKDCFLELAPDFVGDILWEHLEILQKE [Q42M] | -0.237 ± 0.066
GFTKEQQRLGIPKDPRQWTETHVRDWVMWAVNEFSLKGVDFSKFCMNGAALCALGKDCFLELAPDFVGDILWEHLEILQKE [Q42S] | -0.007 ± 0.036
GFTKEQQRLGIPKDPRQWTETHVRDWVMWAVNEFSLKGVDFCKFCMNGAALCALGKDCFLELAPDFVGDILWEHLEILQKE [Q42C] | -0.259 ± 0.061
GFTKEQQRLGIPKDPRQWTETHVRDWVMWAVNEFSLKGVDFTKFCMNGAALCALGKDCFLELAPDFVGDILWEHLEILQKE [Q42T] | -0.052 ± 0.061
GFTKEQQRLGIPKDPRQWTETHVRDWVMWAVNEFSLKGVDFYKFCMNGAALCALGKDCFLELAPDFVGDILWEHLEILQKE [Q42Y] | -0.291 ± 0.073
GFTKEQQRLGIPKDPRQWTETHVRDWVMWAVNEFSLKGVDFNKFCMNGAALCALGKDCFLELAPDFVGDILWEHLEILQKE [Q42N] | -0.047 ± 0.081
GFTKEQQRLGIPKDPRQWTETHVRDWVMWAVNEFSLKGVDFRKFCMNGAALCALGKDCFLELAPDFVGDILWEHLEILQKE [Q42R] | -0.017 ± 0.034
GFTKEQQRLGIPKDPRQWTETHVRDWVMWAVNEFSLKGVDFVKFCMNGAALCALGKDCFLELAPDFVGDILWEHLEILQKE [Q42V] | -0.358 ± 0.044
GFTKEQQRLGIPKDPRQWTETHVRDWVMWAVNEFSLKGVDFPKFCMNGAALCALGKDCFLELAPDFVGDILWEHLEILQKE [Q42P] | -0.214 ± 0.04
GFTKEQQRLGIPKDPRQWTETHVRDWVMWAVNEFSLKGVDFHKFCMNGAALCALGKDCFLELAPDFVGDILWEHLEILQKE [Q42H] | -0.068 ± 0.068
GFTKEQQRLGIPKDPRQWTETHVRDWVMWAVNEFSLKGVDFLKFCMNGAALCALGKDCFLELAPDFVGDILWEHLEILQKE [Q42L] | -0.307 ± 0.036
GFTKEQQRLGIPKDPRQWTETHVRDWVMWAVNEFSLKGVDFDKFCMNGAALCALGKDCFLELAPDFVGDILWEHLEILQKE [Q42D] | -0.029 ± 0.058
GFTKEQQRLGIPKDPRQWTETHVRDWVMWAVNEFSLKGVDFWKFCMNGAALCALGKDCFLELAPDFVGDILWEHLEILQKE [Q42W] | -0.681 ± 0.064
